Data reported in PMC8602292, “Acyl carrier protein promotes MukBEF action in Escherichia coli chromosome organization-segregation” (Nature Communications, 2021).

T1: MukB^K1114E (Escherichia coli, UniProt P22523 1-1486, K1114E)
T1 construct: E. coli MukB with K1114E; Mutant of the whole MukB-His as far as the text tells; source: E. coli FL01 (mukB 3xFLAG C3013I), purified (TALON, HiTrap Heparin, Superdex 200); not shown: His tag, C-terminal, kept
T1 sequence (looked up): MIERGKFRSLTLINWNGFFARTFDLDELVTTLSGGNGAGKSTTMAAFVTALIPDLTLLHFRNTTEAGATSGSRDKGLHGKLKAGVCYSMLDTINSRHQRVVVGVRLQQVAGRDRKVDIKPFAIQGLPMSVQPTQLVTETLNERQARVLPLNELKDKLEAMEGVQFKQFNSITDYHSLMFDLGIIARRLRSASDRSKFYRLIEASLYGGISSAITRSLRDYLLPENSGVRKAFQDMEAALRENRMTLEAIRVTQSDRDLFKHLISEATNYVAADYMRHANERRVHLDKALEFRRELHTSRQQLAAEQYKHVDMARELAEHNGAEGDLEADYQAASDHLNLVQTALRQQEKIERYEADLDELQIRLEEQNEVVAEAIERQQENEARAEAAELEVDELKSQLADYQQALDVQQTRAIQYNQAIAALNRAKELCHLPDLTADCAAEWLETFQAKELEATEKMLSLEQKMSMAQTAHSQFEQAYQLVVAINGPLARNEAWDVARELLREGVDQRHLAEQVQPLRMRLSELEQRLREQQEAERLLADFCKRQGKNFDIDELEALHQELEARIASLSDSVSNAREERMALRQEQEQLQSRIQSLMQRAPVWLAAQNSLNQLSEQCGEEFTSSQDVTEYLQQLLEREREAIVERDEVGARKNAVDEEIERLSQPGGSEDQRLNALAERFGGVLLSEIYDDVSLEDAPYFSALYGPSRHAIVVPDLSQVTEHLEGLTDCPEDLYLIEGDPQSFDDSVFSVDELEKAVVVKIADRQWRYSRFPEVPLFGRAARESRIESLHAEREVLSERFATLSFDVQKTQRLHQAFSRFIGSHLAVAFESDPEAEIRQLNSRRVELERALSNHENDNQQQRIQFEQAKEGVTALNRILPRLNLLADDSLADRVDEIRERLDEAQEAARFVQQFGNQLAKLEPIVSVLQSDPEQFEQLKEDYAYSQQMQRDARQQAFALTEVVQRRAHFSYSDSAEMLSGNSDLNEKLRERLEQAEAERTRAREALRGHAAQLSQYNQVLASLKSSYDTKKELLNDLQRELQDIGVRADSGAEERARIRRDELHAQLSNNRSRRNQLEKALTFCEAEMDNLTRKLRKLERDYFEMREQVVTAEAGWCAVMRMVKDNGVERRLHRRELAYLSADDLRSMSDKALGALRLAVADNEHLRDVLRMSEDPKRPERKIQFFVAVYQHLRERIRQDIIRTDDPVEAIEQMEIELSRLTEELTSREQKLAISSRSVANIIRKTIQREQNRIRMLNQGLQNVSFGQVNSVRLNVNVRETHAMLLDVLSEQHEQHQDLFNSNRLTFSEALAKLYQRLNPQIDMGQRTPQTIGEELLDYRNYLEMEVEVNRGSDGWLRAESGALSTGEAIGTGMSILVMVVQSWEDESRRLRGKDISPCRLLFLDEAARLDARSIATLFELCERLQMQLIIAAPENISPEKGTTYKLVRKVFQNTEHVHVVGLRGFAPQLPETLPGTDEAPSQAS

B1: MukF (His-MukF) (natural protein, Escherichia coli, UniProt P60293 1-440, looked up)
chain: MSEFSQTVPELVAWARKNDFSISLPVDRLSFLLAVATLNGERLDGEMSEGELVDAFRHVSDAFEQTSETIGVRANNAINDMVRQRLLNRFTSEQAEGNAIYRLTPLGIGITDYYIRQREFSTLRLSMQLSIVAGELKRAADAAEEGGDEFHWHRNVYAPLKYSVAEIFDSIDLTQRLMDEQQQQVKDDIAQLLNKDWRAAISSCELLLSETSGTLRELQDTLEAAGDKLQANLLRIQDATMTHDDLHFVDRLVFDLQSKLDRIISWGQQSIDLWIGYDRHVHKFIRTAIDMDKNRVFAQRLRQSVQTYFDEPWALTYANADRLLDMRDEEMALRDEEVTGELPEDLEYEEFNEIREQLAAIIEEQLAVYKTRQVPLDLGLVVREYLSQYPRARHFDVARIVIDQAVRLGVAQADFTGLPAKWQPINDYGAKVQAHVIDKY
notes: MukF, the kleisin of Escherichia coli MukBEF; The end of the tag is read from the printed name 'His-MukF'; also called kleisin MukF; source: E. coli C3013I (NEB), pET vector, purified (TALON, HiTrap DEAE FF, Superdex 200)
B2: MukE (MukE-His) (natural protein, Escherichia coli, UniProt P22524 1-234, looked up)
chain: MSSTNIEQVMPVKLAQALANPLFPALDSALRSGRHIGLDELDNHAFLMDFQEYLEEFYARYNVELIRAPEGFFYLRPRSTTLIPRSVLSELDMMVGKILCYLYLSPERLANEGIFTQQELYDELLTLADEAKLLKLVNNRSTGSDVDRQKLQEKVRSSLNRLRRLGMVWFMGHDSSKFRITESVFRFGADVRAGDDPREAQRRLIRDGEAMPIENHLQLNDETEENQPDSGEEE
notes: MukE, the KITE protein of Escherichia coli MukBEF; The end of the tag is read from the printed name 'MukE-His'; also called KITE protein MukE; source: E. coli C3013I (NEB), pET vector, purified (TALON, HiTrap DEAE FF, Superdex 200)

Target: T1, MukB^K1114E
Experiment: native gel or EMSA; BN-PAGE; MukB or MukB^HN (0-4.5 μM) with MukF (1.5 μM), MukE (3 μM) and AcpP as indicated or none; 1 mM DTT, 1 mM MgCl2, 30 min at 22 °C; 3-12% native Bis-Tris gels; AMPPNP in some samples
Details: both partners purified

Binder | binding result
B1 | binds
B2 | binds
